Experiment: yeast display, Sf9 membrane polyspecificity reagent, FACS + sequencing; frameworks hold sequencing errors
In short: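 A synthetic nanobody library was expressed on Saccharomyces cerevisiae BJ5465 by galactose induction for 36–48 hours. The library was stained for 1 hour at 4 °C with 10% biotinylated, detergent-solubilized Sf9 membrane reagent and enriched with streptavidin microbeads before FACS. Low and high (top ~1%) gates were set on anti-HA fluorescence for expression and streptavidin fluorescence for reagent binding, and each polyreactivity label reflects the gate of origin.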

QVQLVESGGGLVQAGGSLRLICAASGSIFRPNAMGWYRQAPGKERELVAAITWSGDSTYYADSVKGRFTISRDNAKNTVYLQMNSLKPEDTAVYYCAADFTYQGSSANDYWGQGTQVTVSS
polyreactivity (PSR sort gate): low polyreactivity

QVQLVESGGGLVQAGGSLRLICAASGSIFRYAMGWYRQAPGKERELVAAINRSGGSTYYADSVKGRFTISRDNAKNTVYLQMNSLKTEDTEVYYCAKDLRYGVNYRLVNRYGYWGQGTQVTVSS
polyreactivity (PSR sort gate): high polyreactivity

QVQLVESGGGLVQAGGSLRLICAASGSIFRYYAMGWYRQAHGKERELLAAISYSGGSTYYADSVKGRFTISRDNAKNTVYLQMNSLKPEDTAVYYCAKGRHTTRASIAFNYWGQGTQVTVSS
polyreactivity (PSR sort gate): high polyreactivity

QVQLVESGGGLVQAGGSLRLICAASGSIFRYYAMGWYRQAPGKERELVATISWSGGGTYYADSVKGRFTISRHNAKNTVYLQMNSLKPEDTAVYYCAADYGEQYVYWGQGTQVTVSS
polyreactivity (PSR sort gate): low polyreactivity

QVQLVESGGGLVQAGGSLRLICAASGSIFSRNAMGWYRQAPGKERELVASISWSSDITNYADSGKGRFTISRDNAKNTVYLEMNSLKAEDTAVYYCNVDGLLGERFSWGYDYWRQGTQVTVSS
polyreactivity (PSR sort gate): low polyreactivity

QVQLVESGGGLVQAGGSLRLICAASGSIFSSYAMGWYRQAPGKERELVAAITSGGSTYYADSVKGRFTISRDNAKNTVYLQMNSLKPEDTAVYYCAARQVRTSKLHMGYWGQGTQVTVSS
polyreactivity (PSR sort gate): low polyreactivity

QVQLVESGGGLVQAGGSLRLICAASGSIFSWYTMGWYRQAPGKERELVARITTSGGTTRYADSVKGRFTISRDNAKHTAFIQMNSLKPVDTAVYYCAADRSPYWRGYVRYNYWGQGTQVTVSS
polyreactivity (PSR sort gate): high polyreactivity

QVQLVESGGGLVQAGGSLRLICAASGSIFVTNGMGWYRQAPGKERELVAAIRWSGDSTYYADSVKGRFTISRDNGKNTVFLLMKSLKPEDTAVYYCAAESFRYIRLNYKYGDYYWGQGTQVTVSS
polyreactivity (PSR sort gate): high polyreactivity

QVQLVESGGGLVQAGGSLRLICAASGSIFVYNAMGWYRQAPGKERELVAAISQRGGSTYYADSVKGRFTISRDNAKNTVYLQMNSLKPEDTAVYYCAAGPGDSGDDYWGQGTQVTVSS
polyreactivity (PSR sort gate): low polyreactivity

QVQLVESGGGLVQAGGSLRLICAASGSIFYIYAMGWYRQAPGKERELVAVIDNSGSTNYADSVKGRFTISRDNAKNTVYLLINSLKPEDTADYYCLKLWLWASYLYDYWGQGTQVTVSS
polyreactivity (PSR sort gate): low polyreactivity

QVQLVESGGGLVQAGGSLRLICAASGSILSINGMGWYRQAPGKERELVATIDGSDGSTFYADSVKGRFTISRDNAKNTVYLQMNSLKPEDTAVYYCAAENFWQTKEYDYWGQGTQVTVSS
polyreactivity (PSR sort gate): low polyreactivity

QVQLVESGGGLVQAGGSLRLICAASGSSFSYNPMVWYRQAPGKERELVAAIRTSGGRTYYADSVKGRFTISRDNAKNTVYLQMNSLKPEDTAVYYCAKRWVYSYGYEYWGQGTQVTVSS
polyreactivity (PSR sort gate): high polyreactivity

QVQLVESGGGLVQAGGSLRLICAASGSTCVDNAMGGYRPAPGKERELVADISSVGSTYYADYVKGRFTISRDNAKNTVYLQMNTLIPEDTAVYYCNRAGGYRTTFYSWGQGTQVTVSS
polyreactivity (PSR sort gate): high polyreactivity

QVQLVESGGGLVQAGGSLRLICAASGSTFAYNTMGWYRPAPGKERELVAAISWRGTRTYYADSVKGRFTISRDNAKNTVYLQMNSLKPEDTAVYYCATKYGISYDYWGLGTQVTVSS
polyreactivity (PSR sort gate): high polyreactivity

QVQLVESGGGLVQAGGSLRLICAASGSTFCRYAMGRDRQARGKEMELVAAISTRGGSTRYADSVKGRFTISRDYAKYTVYLLINRLKPEDTGVYYCDALGQGRTSATSFVDYEYWGQGTQVTVSS
polyreactivity (PSR sort gate): high polyreactivity

QVQLVESGGGLVQAGGSLRLICAASGSTFDINAMGWYRQAPGKERELVAAITWRSGRTYYADSVKGRFTISRDNAKNTVYLQMNSLKPEDTAVYYCAADDTSYYIYSYDYWGQGTQVTVSS
polyreactivity (PSR sort gate): low polyreactivity

QVQLVESGGGLVQAGGSLRLICAASGSTFGEYAMGWYRQAHGKERELVAVITSDDNTYYADSVKGRFTISRDNAKNTVYLQMNSLKPEDTAVYYCAARGYVLARSQQWRREYYWGQGTQVTVSS
polyreactivity (PSR sort gate): high polyreactivity

QVQLVESGGGLVQAGGSLRLICAASGSTFGGNVMGWYRQAPGKERELVAAINWSGGRTYYADSVKGRFTISRDNAKNTVYLQMNSLKPEDTAVYYCAADGGQNGMNYWGQGTQVTVSS
polyreactivity (PSR sort gate): high polyreactivity

QVQLVESGGGLVQAGGSLRLICAASGSTFGIYAMGWFRQAPGKERELVAAISWRGGRTYYADSVKGSFTISRDNAKNNVYLQRNSLKPEDTAVYNCSADYRYLWEGYDYWGQGTQVTVSS
polyreactivity (PSR sort gate): low polyreactivity

QVQLVESGGGLVQAGGSLRLICAASGSTFGRYAMGWYRQAPGKERELVAGITYGSTYYADSVKGRFTISRDNAKNTVYLQMHSLKPEDTAVYYCAADLSYTSVHGYRSDTLMDYWRQGTQVTVSS
polyreactivity (PSR sort gate): low polyreactivity

QVQLVESGGGLVQAGGSLRLICAASGSTFGYYTMGWYRQAPGKERELVAAITWSGGSTYYADSVKGRFTISRDYANNTVYLQMNSLKPEDTAVYYCAADDYWTPFGYWGQGTQVTVLS
polyreactivity (PSR sort gate): low polyreactivity

QVQLVESGGGLVQAGGSLRLICAASGSTFIVYAMGWSRQAPGKEREFVAAISSGDSTKYADSVKGRFTISRDNAKNTVYLQMNSLKPEDTAVYYCAKYGQRSIHSPSLVGYYYWGQGTQVTVSS
polyreactivity (PSR sort gate): low polyreactivity

QVQLVESGGGLVQAGGSLRLICAASGSTFKRYAMGWYRPAPGNERELVAAISSTGGSTFYADSVKGRFTISRDIAKYTVYLQMNSLKREDTAVYYCKKYRATNSARDYWGQGTQVTVSS
polyreactivity (PSR sort gate): high polyreactivity

QVQLVESGGGLVQAGGSLRLICAASGSTFLVNTMGWYRQAPGKERELVAAISYSGGRTYYADSVKGRFTISRDNAKNTVYFQMNSLKPEDTAVYYCAARYYRTRREGVDYWGQGTQVTVSS
polyreactivity (PSR sort gate): high polyreactivity

QVQLVESGGGLVQAGGSLRLICAASGSTFNGNDRGWYRQAPGKERELVATISDGGRTYYADSVKGRFTISRDNAKITVYLQMNSLKPEDTAVYYCAAPVYVPRAWFYYWGQGTQVTVSS
polyreactivity (PSR sort gate): low polyreactivity

QVQLVESGGGLVQAGGSLRLICAASGSTFNVYAMGWYIPAPGKERELVASIRTSGTRTYYADSVKGRFTISRDNAKNNVYLQMNSLKPEDTAVYYCNARYYSNLRRHGGYWGQGTQVTVSS
polyreactivity (PSR sort gate): high polyreactivity

QVQLVESGGGLVQAGGSLRLICAASGSTFQSYAMGWYRQAPGKERELVAAISARGGTTYYADSVKGRFTISRDNAKNTVYLQMNSLKPEDTAVYYCAAVDHSVYSGSPDTGESDYWGQGTQVTVSS
polyreactivity (PSR sort gate): low polyreactivity

QVQLVESGGGLVQAGGSLRLICAASGSTFSSYFMGWYRQAPRKERKLVAAITRSGVYTYYADSVKGRFTISRDNAKNTVYLQMNSLKPEDTAVYYCARRAKGAYWNEYNYWGQGTQVTVSS
polyreactivity (PSR sort gate): high polyreactivity

QVQLVESGGGLVQAGGSLRLICAASGSTFSYYTIGWYRTAPGKEMELVATISRRGASTYYADSVKGRFTISLDNAKNTVYLQMNSLKPEDTAVYYCAKSYYYGRSATRPEYDYWGQGTQVTVSS
polyreactivity (PSR sort gate): high polyreactivity

QVQLVESGGGLVQAGGSLRLICAASGSTFTGYAMGWYRQAPGKERELVAGITGSGGSTYYADSVKGRFTISRDNAKNTVYLQMNSLKPEDTAVYYCAAELYDYGDLYYSEYDYWGQGTQVTVSS
polyreactivity (PSR sort gate): low polyreactivity

QVQLVESGGGLVQAGGSLRLICAASGSTFYYNDMGWYRQAPGKERELVAAITGDGTTDYADSVKGRFTISRDNAKNTVYLQMNSLKPEDTAVYYCATTWSTYKWPDAYIIWYGYWGQGTQVTVSS
polyreactivity (PSR sort gate): high polyreactivity

QVQLVESGGGLVQAGGSLRLICAASGSTLAYNAMGWYRQAPGKERELVAGIRGSGGSTYYADSVKGRFTISRDNAKNTVYLQMNSLKPEDTAVYDCAADGLSNVRQMDYWGQGTQVTVSS
polyreactivity (PSR sort gate): low polyreactivity

QVQLVESGGGLVQAGGSLRLICAASGSTSWINAMGWYIQAPGKERELVAAISGRDGSTNYADSVKGRFTISRDNAKNTVYLLMNSLKPEDTAVYYCNANGRRFNRYGGDYWGLGTQVTVSS
polyreactivity (PSR sort gate): high polyreactivity

QVQLVESGGGLVQAGGSLRLICAASGSTYRGYAMGWYRQAPGKERELVAAISYISGGTYYADSVKGRFTISRDNAKYTVYLQMNSLKPEDTAVYYCAVGSHSRSSNSYYYWGQGTQVTVSW
polyreactivity (PSR sort gate): low polyreactivity

QVQLVESGGGLVQAGGSLRLICAASGTTFLSYAMGWYRQAQGKDRELVAAISWSGGRTYYAHSVKGRFTISRDNAKNTVYLQMNSLKPEDTAVYYCAAPHVPFTKHEYEYWGQGTQVTLSS
polyreactivity (PSR sort gate): low polyreactivity

QVQLVESGGGLVQAGGSLRLICAASGVIFTGYTMGWYREAPGKESELVAAISYRGGSTYYADSVKGRFTISRDNAKITVYFQMNRLKPEDTAVYYCNAVWSNFRLGYDHWGQGTQVTVSS
polyreactivity (PSR sort gate): high polyreactivity

QVQLVESGGGLVQAGGSLRLICAASGYIFYKNAMGWYRQAPGKERELVASITGTGGSTYYADSVKGRFTISRDNAKNTVYLQMNSLKPEDTAVYYCAADYTPWDPVSHWGQGTQVTVSS
polyreactivity (PSR sort gate): low polyreactivity

QVQLVESGGGLVQAGGSLRLICAASGYTFYFYAMGWYIQAPGKERELVAAITGGGTTSYADSVKGRFTISRDKAKNTVYLQMNSLKPEDTAVYYCASSVRNNIERYRDYYWGQGTQVTVSS
polyreactivity (PSR sort gate): low polyreactivity

QVQLVESGGGLVQAGGSLRLICAATGRIFSPNAMGWYRQAPGKERELVAAITTSGGITYYADSVKGRFTISRDNAKNTVYLQMNSLKPEDTAVYYCNTGYNGRLRDDYWGQGTQVTVSS
polyreactivity (PSR sort gate): high polyreactivity

QVQLVESGGGLVQAGGSLRLICAATGSTLVSNAMGWYRKDPGKERELVAAISTSGGSTYYADSVKGRFTISRDNAKNTVYLQMNSLKPEDTAVYYCAAPYAGWGDGGDYWGQGTQVTVSS
polyreactivity (PSR sort gate): low polyreactivity

QVQLVESGGGLVQAGGSLRLICADSGSIFVYYLMVWYRQAPGKEREFVAAISYGGGSTYYADSVKGRFTISRDNAKNTVYLQMNSLKPEDTAVYYCNTDIYSDYVCEEYEYWGQGTQVTLSS
polyreactivity (PSR sort gate): high polyreactivity

QVQLVESGGGLVQAGGSLRLICAGSGRIFYRYPMGWYRQAPGKERELVAAITVRGGSTYYADSVKGRFTISRDNAKNTVYVQRHSLKPEDTALYYCATGLGVLYDYWYEVEFDYWGQGTQVSVSS
polyreactivity (PSR sort gate): low polyreactivity

QVQLVESGGGLVQAGGSLRLICASSGRIFAGYAMGWYRQAPGKERELVAAIRDSGRTYYAVSVKGRFTISRDNAKNTVYLQMNSLKPEVTAVSYCAADAHSSYSPFRWYDYWGQGTQVTVSS
polyreactivity (PSR sort gate): low polyreactivity

From the nanobody polyreactivity screen of Harvey et al. (2022)
